Data on six substances can be found in patent US20220229068A1, “DETECTION OF PROTEIN TO PROTEIN INTERACTIONS” (THE GOVERNING COUNCIL OF THE UNIVERSITY OF TORONTO, priority 2019, published 2022).

Common to all, as to experiment: SIMPL ELISA, bait-IN/prey-CIC
In general terms: ELISA stands for enzyme-linked immunosorbent assay.

The target of experiment [1] is CXCR2 (prey, CIC format) (human) (UniProt P25025).
Experiment [2] has as its target T1, MAP2K5 (prey, CIC format) (human) (UniProt Q13163).
T1 sequence (looked up): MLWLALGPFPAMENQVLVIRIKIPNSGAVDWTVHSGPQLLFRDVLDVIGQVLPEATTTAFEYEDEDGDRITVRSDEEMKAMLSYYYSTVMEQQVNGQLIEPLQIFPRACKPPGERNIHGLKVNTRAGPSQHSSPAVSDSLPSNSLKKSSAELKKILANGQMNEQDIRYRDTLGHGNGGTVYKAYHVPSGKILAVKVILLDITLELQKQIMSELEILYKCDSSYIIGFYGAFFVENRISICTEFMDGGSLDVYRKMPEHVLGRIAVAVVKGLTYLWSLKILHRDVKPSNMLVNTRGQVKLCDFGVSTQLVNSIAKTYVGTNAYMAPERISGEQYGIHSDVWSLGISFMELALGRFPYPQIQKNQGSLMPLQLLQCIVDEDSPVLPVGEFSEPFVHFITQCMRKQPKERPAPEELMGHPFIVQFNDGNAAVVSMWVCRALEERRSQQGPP

In experiment [3] the target is T2, ORC4 (prey, CIC format) (human) (UniProt O43929).
T2 sequence (looked up): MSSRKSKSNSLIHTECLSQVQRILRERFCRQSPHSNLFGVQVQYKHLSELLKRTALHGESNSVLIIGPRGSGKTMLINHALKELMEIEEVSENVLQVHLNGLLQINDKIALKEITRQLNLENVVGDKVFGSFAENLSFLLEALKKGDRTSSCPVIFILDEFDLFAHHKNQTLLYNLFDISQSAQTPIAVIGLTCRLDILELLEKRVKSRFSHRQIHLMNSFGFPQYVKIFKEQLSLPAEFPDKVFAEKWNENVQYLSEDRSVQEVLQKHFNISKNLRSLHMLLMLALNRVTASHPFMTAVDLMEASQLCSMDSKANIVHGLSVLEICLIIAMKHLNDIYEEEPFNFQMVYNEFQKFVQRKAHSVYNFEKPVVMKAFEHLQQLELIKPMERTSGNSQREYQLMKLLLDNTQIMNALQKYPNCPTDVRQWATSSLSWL

The target of experiment [4] is SMAD4 (prey, CIC format) (human) (UniProt Q13485).
The target of experiment [5] is CASP3 (prey, CIC format) (human) (UniProt P42574).
For experiment [6], the target named is T3, S100B (prey, CIC format) (human) (UniProt P04271).
T3 sequence (looked up): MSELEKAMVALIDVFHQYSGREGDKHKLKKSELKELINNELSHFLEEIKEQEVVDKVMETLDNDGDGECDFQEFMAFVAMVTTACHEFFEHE

Experiment [7] deals with T4, MAD1L1 (prey, CIC format) (human) (UniProt Q9Y6D9).
T4 sequence (looked up): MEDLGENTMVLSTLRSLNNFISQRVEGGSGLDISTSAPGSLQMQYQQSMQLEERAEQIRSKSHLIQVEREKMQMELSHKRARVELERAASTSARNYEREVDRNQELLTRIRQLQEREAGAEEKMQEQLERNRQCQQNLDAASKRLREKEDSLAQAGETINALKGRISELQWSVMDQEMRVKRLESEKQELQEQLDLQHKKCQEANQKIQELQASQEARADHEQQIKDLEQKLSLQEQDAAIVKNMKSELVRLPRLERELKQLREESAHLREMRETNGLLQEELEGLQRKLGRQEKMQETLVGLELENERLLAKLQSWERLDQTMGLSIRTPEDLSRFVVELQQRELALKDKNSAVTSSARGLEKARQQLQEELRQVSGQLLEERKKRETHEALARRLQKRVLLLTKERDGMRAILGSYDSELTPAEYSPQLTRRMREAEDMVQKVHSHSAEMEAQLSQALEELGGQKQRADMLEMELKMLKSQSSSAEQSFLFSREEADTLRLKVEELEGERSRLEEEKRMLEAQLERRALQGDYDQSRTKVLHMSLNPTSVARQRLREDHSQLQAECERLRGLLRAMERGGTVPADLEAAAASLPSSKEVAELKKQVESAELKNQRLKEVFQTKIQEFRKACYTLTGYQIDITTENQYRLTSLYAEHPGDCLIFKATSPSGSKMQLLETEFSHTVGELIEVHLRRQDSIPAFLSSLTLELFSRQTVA

For experiment [8], the target named is NFE2L1 (prey, CIC format) (human) (UniProt Q14494).
Experiment [9] deals with T5, NTF4 (prey, CIC format) (human) (UniProt P34130).
T5 sequence (looked up): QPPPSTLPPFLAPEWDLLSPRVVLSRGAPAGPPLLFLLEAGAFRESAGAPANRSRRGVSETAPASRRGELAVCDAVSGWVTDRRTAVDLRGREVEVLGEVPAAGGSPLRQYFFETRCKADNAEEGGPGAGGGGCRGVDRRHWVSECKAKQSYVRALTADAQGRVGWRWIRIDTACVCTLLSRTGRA

For experiment [10], the target named is T6, BATF (prey, CIC format) (human) (UniProt Q16520).
T6 sequence (looked up): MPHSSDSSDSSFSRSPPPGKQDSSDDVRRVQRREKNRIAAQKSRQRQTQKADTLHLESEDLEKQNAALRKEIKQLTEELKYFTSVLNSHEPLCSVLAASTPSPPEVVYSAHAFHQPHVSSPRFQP

Experiment [11] deals with T7, PEX11B (prey, CIC format) (human) (UniProt O96011).
T7 sequence (looked up): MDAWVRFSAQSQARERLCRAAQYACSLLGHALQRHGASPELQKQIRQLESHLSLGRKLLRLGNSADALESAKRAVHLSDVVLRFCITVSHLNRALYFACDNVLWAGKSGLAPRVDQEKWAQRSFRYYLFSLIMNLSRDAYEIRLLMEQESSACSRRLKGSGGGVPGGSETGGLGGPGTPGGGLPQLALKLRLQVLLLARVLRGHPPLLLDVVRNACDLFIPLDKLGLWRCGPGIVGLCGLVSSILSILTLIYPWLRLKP

Experiment [12] has as its target PEX16 (prey, CIC format) (human) (UniProt Q9Y5Y5).
For experiment [13], the target named is BTRC (prey, CIC format) (human) (UniProt Q9Y297).
Experiment [14] addresses SKP2 (prey, CIC format) (human) (UniProt Q13309).
In experiment [15] the target is T8, CASP7 (prey, CIC format) (human) (UniProt P55210).
T8 sequence (looked up): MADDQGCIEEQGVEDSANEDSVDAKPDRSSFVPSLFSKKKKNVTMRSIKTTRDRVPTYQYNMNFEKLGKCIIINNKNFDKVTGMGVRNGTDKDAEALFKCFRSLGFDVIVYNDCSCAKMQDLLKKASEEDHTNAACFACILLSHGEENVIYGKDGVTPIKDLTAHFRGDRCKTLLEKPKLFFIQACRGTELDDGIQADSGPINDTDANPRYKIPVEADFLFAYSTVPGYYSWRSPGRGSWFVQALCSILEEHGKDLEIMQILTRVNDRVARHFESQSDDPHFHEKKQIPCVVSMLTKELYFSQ

Experiment [16] deals with RAN (prey, CIC format) (human) (UniProt P62826).

Sequence of CXCR2 (prey, CIC format) (human) (P25025 whole entry): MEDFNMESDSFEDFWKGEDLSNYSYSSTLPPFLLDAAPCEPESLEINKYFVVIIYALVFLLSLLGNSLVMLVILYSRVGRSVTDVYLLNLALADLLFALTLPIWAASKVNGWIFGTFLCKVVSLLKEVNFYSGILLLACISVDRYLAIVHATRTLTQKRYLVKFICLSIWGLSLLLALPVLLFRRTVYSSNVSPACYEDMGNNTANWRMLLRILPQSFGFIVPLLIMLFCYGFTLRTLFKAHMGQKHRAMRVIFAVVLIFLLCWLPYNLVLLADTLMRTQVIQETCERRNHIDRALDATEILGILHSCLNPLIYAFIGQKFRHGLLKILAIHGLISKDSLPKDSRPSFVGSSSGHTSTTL
Sequence of S100A1 (bait, IN format) (P23297 whole entry): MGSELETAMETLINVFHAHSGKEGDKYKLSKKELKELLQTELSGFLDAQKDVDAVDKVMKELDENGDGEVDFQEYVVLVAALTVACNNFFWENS
Sequence of SKP2 (prey, CIC format) (human) (Q13309 whole entry): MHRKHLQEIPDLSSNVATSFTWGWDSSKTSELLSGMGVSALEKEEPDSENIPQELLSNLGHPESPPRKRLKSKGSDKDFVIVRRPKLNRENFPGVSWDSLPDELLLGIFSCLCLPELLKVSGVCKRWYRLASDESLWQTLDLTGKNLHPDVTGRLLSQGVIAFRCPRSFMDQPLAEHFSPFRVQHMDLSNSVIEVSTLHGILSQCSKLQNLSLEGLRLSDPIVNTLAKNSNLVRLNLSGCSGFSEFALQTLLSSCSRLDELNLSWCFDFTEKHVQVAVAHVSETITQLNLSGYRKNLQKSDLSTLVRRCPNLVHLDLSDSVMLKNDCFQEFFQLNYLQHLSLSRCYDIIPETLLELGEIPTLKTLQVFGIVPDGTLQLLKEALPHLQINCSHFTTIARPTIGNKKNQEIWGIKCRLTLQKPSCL
Sequence of RCC1 (bait, IN format) (P18754 whole entry): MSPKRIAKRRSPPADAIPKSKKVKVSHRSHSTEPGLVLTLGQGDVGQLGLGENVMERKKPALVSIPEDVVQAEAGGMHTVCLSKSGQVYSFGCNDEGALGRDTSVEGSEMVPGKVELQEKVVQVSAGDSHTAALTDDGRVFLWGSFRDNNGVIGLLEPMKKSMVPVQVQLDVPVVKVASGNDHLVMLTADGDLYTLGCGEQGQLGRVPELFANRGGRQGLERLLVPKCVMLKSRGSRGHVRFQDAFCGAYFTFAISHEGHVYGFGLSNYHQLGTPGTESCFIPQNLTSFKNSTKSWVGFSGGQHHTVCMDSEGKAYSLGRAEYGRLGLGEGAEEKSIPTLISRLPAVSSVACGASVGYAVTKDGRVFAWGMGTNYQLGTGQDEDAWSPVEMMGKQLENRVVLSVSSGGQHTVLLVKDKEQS
Sequence of PEX16 (prey, CIC format) (human) (Q9Y5Y5 whole entry): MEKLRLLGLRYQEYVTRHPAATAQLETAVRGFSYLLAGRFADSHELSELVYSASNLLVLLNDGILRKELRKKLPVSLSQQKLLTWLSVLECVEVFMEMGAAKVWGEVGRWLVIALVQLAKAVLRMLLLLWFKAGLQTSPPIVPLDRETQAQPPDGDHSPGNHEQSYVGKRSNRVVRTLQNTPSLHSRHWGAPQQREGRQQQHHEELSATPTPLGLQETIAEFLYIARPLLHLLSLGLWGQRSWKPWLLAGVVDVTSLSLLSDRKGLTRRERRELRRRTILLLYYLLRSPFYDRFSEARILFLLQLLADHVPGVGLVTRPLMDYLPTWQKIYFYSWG
Sequence of CASP3 (prey, CIC format) (human) (P42574 whole entry): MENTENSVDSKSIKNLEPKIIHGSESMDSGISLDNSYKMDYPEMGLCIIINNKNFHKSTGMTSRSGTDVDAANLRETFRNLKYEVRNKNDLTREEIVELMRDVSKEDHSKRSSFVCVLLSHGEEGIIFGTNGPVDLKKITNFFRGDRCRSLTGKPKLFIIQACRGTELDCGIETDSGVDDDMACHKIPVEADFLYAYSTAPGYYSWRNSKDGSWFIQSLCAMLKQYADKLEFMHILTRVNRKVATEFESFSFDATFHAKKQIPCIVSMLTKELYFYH
Sequence of SMAD4 (prey, CIC format) (human) (Q13485 whole entry): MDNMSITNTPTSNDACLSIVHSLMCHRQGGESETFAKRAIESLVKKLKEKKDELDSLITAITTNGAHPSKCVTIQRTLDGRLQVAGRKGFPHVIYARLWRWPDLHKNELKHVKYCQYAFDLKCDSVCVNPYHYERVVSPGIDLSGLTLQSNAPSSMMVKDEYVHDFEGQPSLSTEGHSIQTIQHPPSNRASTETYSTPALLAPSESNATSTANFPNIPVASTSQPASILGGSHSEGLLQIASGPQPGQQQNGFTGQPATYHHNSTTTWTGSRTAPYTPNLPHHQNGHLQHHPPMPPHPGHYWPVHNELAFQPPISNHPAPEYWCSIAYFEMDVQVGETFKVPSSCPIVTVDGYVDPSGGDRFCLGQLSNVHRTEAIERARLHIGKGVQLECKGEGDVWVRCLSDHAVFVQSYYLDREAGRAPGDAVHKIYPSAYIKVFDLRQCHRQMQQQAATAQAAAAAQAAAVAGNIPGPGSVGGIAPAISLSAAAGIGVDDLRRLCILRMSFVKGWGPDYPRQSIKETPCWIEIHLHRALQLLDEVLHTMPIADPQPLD
Sequence of NFE2L1 (prey, CIC format) (human) (Q14494 whole entry): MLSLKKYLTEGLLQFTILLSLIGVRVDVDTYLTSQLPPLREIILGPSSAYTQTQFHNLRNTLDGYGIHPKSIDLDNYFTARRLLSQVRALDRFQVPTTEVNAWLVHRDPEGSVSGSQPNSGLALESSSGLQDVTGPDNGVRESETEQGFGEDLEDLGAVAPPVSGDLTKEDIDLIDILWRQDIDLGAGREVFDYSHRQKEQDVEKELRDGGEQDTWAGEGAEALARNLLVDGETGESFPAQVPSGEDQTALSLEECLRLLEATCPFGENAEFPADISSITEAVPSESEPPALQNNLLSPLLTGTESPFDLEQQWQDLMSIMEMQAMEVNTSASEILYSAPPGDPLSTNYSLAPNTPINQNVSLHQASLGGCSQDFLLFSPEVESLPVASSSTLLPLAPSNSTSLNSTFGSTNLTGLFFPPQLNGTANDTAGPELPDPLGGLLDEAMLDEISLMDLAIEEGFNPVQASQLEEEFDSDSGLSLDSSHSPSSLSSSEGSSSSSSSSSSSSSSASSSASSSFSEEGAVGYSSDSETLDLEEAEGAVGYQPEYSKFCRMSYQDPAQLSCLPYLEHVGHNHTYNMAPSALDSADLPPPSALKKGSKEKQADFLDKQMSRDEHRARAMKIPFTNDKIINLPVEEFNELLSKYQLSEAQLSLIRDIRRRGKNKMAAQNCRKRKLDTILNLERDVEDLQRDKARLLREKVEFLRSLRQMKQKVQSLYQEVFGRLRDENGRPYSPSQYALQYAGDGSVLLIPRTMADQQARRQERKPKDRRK
Sequence of BTRC (prey, CIC format) (human) (Q9Y297 whole entry): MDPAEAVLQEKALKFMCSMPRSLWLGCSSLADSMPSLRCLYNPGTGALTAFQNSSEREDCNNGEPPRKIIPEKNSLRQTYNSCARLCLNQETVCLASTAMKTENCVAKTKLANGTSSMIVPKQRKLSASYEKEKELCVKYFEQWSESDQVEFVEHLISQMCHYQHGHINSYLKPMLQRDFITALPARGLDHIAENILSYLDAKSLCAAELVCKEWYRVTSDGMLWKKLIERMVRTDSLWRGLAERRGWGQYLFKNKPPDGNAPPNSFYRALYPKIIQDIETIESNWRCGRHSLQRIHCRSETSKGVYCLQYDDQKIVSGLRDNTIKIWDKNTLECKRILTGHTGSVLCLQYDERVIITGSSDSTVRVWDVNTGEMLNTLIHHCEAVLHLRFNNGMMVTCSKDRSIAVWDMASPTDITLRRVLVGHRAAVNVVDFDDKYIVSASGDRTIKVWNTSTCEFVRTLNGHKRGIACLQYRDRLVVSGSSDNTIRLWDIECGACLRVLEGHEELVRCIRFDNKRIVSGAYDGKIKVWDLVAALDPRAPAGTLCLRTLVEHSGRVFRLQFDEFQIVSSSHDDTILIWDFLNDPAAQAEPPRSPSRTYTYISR

In the case of “CXCL1 (bait, IN format) (from UniProt P09341 35-107) (ligand)”, the PLU mean in experiment [1] came to 0.178; in experiment [2] it was 0.27; in experiment [3], 0.103; in experiment [4] it was 0.101.

In the case of “S100A1 (bait, IN format) (from UniProt P23297 1-94)”, the PLU mean in experiment [5] was 0.158; in [6], 0.822.

Turning to “MAD2L1 (bait, IN format) (from UniProt Q13257 1-205)”, the figures for the PLU mean in experiment [7], in [8] and in experiment [9] were 2.52, 0.0819 and 0.133, respectively.

In the case of “PEX19 (bait, IN format) (from UniProt P40855 1-299)”, the PLU mean in experiment [10] is 0.154; in experiment [11] it was 1.18; in experiment [12], 1.09.

On to “SKP1A (bait, IN format) (from UniProt P63208 1-163)”, for which the PLU mean in [13] was determined as 1.26; in experiment [1] it was 0.107; in experiment [14], 0.376.

For “RCC1 (bait, IN format) (from UniProt P18754 1-421)”, the PLU mean in experiment [15] was determined as 0.125; in experiment [16] it was 0.748.
